From publication PMC9763686 (The Journal of Biological Chemistry, 2022) come the findings set out here.

Common to all, as to assay: ELISA
Holding throughout (details): one partner purified

The target of experiment [1] is H9N2-NP fragment 1 to 1215 bp (N405 amino acids) (Influenza A virus …, UniProt W5RGA6).
Experiment [2] has as its target H9N2-NP fragment 1 to 1308 bp (N436 amino acids) (Influenza A virus …, UniProt W5RGA6).
For experiment [3], the target named is H9N2-NP fragment 1 to 1182 bp (N394 amino acids) (Influenza A virus …, UniProt W5RGA6).
In experiment [4] the target is H1N1-NP (nucleoprotein of A/Guangzhou/01/2009 (H1N1)) (Influenza A virus A/Guangzhou/01/2009 …, UniProt C3W5S2, strain).
Experiment [5] concerns the target IBV-NP (nucleoprotein of influenza B virus B/Yamagata/16/1988) (Influenza B virus B/Yamagata/16/1988, UniProt Q82662, strain).
For experiment [6], the target named is H9N2-NP fragment 1 to 1167 bp (N389 amino acids) (Influenza A virus …, UniProt W5RGA6).

B1: H9N2-NP-Nb5-HRP (VHH)
VHH: ESGGGLVQPGGSLRLSCAASGFPFSDYDMNWARQAPGKELEDVSAISSGGTYTYYADSVKGRFTISRDNAKNTLYLQLNSLQTEDTAMYYCGRGWTSGYKSRGQGTQVTVSS
Consider B1, for which the binding result in experiment [1] was “binds”; in experiment [2], “binds”; in experiment [3] it was “binds”; in experiment [4] it was “binds”; in experiment [5], “no binding”; in experiment [6] it was “binds”.

B2: H9N2-NP-Nb53-HRP (VHH)
VHH: ESGGGSVQAGGSLRLSCAASGYTFSNVYMGWFRQAPGKEREGVAAIDRDGRTTYGDSVKGRFTISQDNAKNILYLQMSSLKPEDTATYYCAADPGYVELISEPLAGIWYRYWGQGTQVTVSS
Take B2: the results for the binding result in experiment [4] and in experiment [5] were “binds” and “no binding”, respectively.

B3: H9N2-NP-Nb18-HRP (VHH)
VHH: ESGGGSVQAGGSLRLSCAASHTYGTYAMAWFRQAPGEEREGVAAIDSDGETIYADSVKGRFTISRDNAKNILYLQMNSLKPEDTAMYYCAEDLRGVWYGRLELRPGRFTYWGQGTQVTVSS
Take B3: the values for the binding result in experiment [4] and in experiment [5] were “binds” and “no binding”, respectively.

B4: H9N2-NP-Nb42-HRP (VHH)
VHH: ESGGESVQAGGSLRLSCATSGFTYNRSYCMAWFRQVLGKEREGVAVIDRVGGSTYYADSVKGRFTVSQDNAKTTLYLQMNSLTPEDTAMYYCAAVSTLMTTCQGLLAGHSQRYAYWGQGTQVTVSS
On to B4, for which the binding result in experiment [4] is on record as “binds”; in experiment [5] it was “no binding”.

B5: H9N2-NP-Nb16-HRP (VHH)
VHH: ESGGGSVQAGGSLRLSCAASGYTYSAYCMGWFRQAPGKEREEVASIDSDFGTNYADSVKGRFTISKDNPKNTLYLQMNNLKAEDTAMYYCAALKYSSSLCLDALPSRANYWGQGTQVTVSS
B5: the binding result in experiment [4] is given as “binds”; in experiment [5], “no binding”.
